From IntAct's records for PubMed 21236256

B1: Actin filament-associated protein 1 (Gallus gallus (Chicken)), Q90738 (parent)
chain: MEELIVELRLFLELLDHEYLTSTVREKKAVITNILLRIQSSKGFEIKEHVQKPEVANSLPAPPQMPLPEIPQQWLPPDNGPPPLPTSSLPEGYYEEAVPVSPGKAPEYITSNYDSDAMSSSYESYDEEEEDGKGKKMRHQWPSEEASMDLVKDAKICAFLLRKKRFGQWTKLLCVIKENKLLCYKSSKDQQPQMELLLNDCSITYIPKDSKKKKHELKISHQGADALVLAVQSKEQAEQWLKVIKDVCSNCTGTVDSDGPLSSSPVHKTELEKKLSSERPSSDGEGAVENGITTVCNGKEQVKRKKSSKTEAKGTVTKVTGKKITKIIGLGKKKPSTDEQTSSAEEDVPTCGYLNVLSNNRWRERWCRVKDNKLIFHKDRTDLKTHIVSIPLRGCEVIPGLDSKHPLTFRLLRNGQEVAVLEASSSEDMGRWIGMLLAETGSSTDPGALHYDYIDVEMTASVIQAAKQTFCFMNRRVISTNPYRGSTANGYACPSGMALHYDDVPCINGSFKGKKPPATANGITGKVRTLNSQPKKPESVSCVKRTASNAEQYKYGKNRVEAVAKRLQSKEEELLKRKEALRNRLAQLRKERKDLRAAIEVNAGRKTQVILEDKLKKLEEECKTKEAERVNLELELTEVKESLKKALAGGITLGLAIEPKSGTSSPQSPIFKHRTLENSPISSCDTSDTECSIPVNSAAALKRPPSSNNSPCRGHVLRKAKEWEMKNGT

Variants of: B1
Conditions: with src_chick SRC

effect of a mutation on the interaction | Variant
decreasing interaction | P71A
